Usually Kd stands for a measure of binding affinity in units of concentration. By koff is commonly meant the rate constant with which the complex falls apart. The kon is a measure of how fast the partners come together.

The target in assay [1] is T1, human complement C3 (human, UniProt P01024 23-1663). Briefly: cell-based or functional assay.
Assay [2] concerns the target T1, human complement C3. Briefly: method not given.
Assay [3] concerns the target T2, human C3b (human, UniProt P01024 23-667; P01024 749-1663, limits assumed).
T2 construct: domain: C3b; also called C3 cleavage fragments C3b
Briefly: method not given.

The target of assay [4] is T1, human complement C3. Description: SPR (Biacore T100), target immobilized, single cycle kinetics, 1:1 Langmuir fit. As to the method:
(§1) The kinetic parameters of the candidates are determined using a surface plasmon resonance (SPR) and Biacore T100 device. C3 and different variants thereof (Table 19) are immobilized as a ligand on a HC30M SPR sensor chip (XanTec bionanalytics, Germany) using EDC/[…] linking chemistry. Five increasing concentrations of each molecule (analyte) are consecutively injected using the single cycle kinetics (SCK) mode to determine the kinetic parameters. Regeneration between the candidates is done with 10 mM glycine*HCl, 2 M NaCl, pH 3.5. The data is fitted to a 1:1 Langmuir binding model and the kinetic parameters of on-rate (ka), off-rate (kd), and affinity […] were determined.
On the technique in general: SPR reads the build-up and loss of mass on a sensor chip optically.

Assay [5] concerns the target T2, human C3b. The assay is described as above. As to the method:
as §1

The target in assay [6] is T1, human complement C3. The assay is described as above. Here is the method:
as §1
The source holds these as a separate data set.

Assay [7] concerns the target T2, human C3b. Described as above. As to the method:
as §1
This is another data set of the same source.

Assay [8] has as its target T3, cynomolgus C3 (cynomolgus (Macaca fascicularis)).
T3 construct: also called cyno C3
Described as above. Here is the method: as §1

Assay [9] concerns the target T4, recombinant wild-type human C3 (human, UniProt P01024 23-1663, limits assumed).
T4 construct: Expressed in CHO cells with an N-terminal 6×His tag; also called recombinant C3; wildtype C3
Described as above. As to the method:
as §1

The target of assay [10] is T5, human C3 P314L (human, UniProt P01024 23-1663, limits assumed).
T5 construct: Expressed in CHO cells with an N-terminal 6×His tag; also called C3 SNP1 P314L; C3 SNP P314L
The description is as above. Here is the method: as §1

In assay [11] the target is T6, human C3 R102G (human, UniProt P01024 23-1663, limits assumed).
T6 construct: Expressed in CHO cells with an N-terminal 6×His tag; also called C3 SNP2 R102G; C3 SNP R102G
The assay is described as above. As to the method: as §1

In assay [12] the target is T1, human complement C3. Briefly: affinity of the purified scFv, method not given.
Assay [13] deals with T1, human complement C3. Briefly: method not given; reference Clone IV.
Assay [14] addresses T2, human C3b. Briefly: method not given; reference Clone IV.
Assay [15] addresses T2, human C3b. Briefly: SPR; reference: the same molecule on intact human C3. As to the method: as §1

T5 sequence (P01024 other isoform, or with tags, fused parts or gaps P314L P314L limits assumed): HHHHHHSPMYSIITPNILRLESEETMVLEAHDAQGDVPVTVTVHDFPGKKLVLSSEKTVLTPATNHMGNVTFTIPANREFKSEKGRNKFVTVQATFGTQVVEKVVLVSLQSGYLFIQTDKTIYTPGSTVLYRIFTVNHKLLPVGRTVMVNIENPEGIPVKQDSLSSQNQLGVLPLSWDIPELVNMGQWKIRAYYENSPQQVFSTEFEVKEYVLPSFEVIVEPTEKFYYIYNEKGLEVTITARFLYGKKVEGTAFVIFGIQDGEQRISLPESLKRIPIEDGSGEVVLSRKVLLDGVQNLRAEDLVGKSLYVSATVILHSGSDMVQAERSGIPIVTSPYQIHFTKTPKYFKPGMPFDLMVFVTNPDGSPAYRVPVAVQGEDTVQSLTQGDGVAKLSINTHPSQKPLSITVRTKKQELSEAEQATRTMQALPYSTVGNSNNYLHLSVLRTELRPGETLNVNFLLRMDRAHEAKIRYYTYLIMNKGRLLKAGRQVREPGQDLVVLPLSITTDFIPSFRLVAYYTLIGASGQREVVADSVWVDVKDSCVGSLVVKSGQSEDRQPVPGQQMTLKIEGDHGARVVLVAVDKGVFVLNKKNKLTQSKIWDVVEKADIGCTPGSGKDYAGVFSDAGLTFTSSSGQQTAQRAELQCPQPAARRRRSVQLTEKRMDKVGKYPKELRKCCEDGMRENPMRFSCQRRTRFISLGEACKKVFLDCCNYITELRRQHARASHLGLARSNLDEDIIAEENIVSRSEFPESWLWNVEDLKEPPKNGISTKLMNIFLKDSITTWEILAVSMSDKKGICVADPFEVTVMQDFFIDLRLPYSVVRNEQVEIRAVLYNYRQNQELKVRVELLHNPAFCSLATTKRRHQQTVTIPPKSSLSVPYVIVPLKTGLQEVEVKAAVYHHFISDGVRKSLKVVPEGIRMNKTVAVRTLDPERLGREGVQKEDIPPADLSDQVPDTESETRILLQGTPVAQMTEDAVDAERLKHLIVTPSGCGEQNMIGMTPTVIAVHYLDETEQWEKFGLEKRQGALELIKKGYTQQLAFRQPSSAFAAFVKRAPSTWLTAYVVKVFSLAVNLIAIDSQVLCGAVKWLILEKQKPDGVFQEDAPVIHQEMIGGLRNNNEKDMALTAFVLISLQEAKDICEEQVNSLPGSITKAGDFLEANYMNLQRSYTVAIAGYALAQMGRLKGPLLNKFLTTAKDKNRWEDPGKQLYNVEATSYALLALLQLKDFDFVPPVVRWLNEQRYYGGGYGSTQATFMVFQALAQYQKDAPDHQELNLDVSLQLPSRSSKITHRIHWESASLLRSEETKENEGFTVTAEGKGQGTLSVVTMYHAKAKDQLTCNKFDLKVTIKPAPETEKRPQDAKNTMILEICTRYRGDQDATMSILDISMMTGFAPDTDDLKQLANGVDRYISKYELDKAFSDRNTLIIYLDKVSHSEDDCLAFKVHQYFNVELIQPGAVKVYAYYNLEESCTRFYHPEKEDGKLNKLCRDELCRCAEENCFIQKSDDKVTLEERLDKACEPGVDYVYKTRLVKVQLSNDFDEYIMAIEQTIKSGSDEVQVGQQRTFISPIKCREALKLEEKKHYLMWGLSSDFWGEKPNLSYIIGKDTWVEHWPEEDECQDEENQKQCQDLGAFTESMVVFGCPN
T4 sequence (P01024 other isoform, or with tags, fused parts or gaps limits assumed): as the sequence (P01024 other isoform, or with tags, fused parts or gaps P314L P314L limits assumed) above, with L298P counted along it
T2 sequence (P01024 23-667 limits assumed, chain 1 of 2): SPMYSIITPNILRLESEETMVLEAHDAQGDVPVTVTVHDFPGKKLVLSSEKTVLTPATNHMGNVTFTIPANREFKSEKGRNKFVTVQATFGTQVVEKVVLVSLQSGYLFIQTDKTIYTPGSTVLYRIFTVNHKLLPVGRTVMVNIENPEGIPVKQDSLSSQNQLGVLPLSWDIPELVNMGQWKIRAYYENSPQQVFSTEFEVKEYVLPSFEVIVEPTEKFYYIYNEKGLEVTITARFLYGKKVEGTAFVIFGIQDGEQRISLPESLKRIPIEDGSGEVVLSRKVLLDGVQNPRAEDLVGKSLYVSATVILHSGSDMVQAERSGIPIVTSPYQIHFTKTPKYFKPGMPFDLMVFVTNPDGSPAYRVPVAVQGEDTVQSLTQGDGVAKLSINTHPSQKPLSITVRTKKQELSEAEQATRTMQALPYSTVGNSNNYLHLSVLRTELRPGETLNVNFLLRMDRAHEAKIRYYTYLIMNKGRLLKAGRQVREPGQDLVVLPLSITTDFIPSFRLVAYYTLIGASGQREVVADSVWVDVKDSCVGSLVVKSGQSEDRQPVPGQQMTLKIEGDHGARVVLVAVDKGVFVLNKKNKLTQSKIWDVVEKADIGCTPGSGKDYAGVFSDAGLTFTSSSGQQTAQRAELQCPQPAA
T2 sequence (P01024 749-1663 limits assumed, chain 2 of 2): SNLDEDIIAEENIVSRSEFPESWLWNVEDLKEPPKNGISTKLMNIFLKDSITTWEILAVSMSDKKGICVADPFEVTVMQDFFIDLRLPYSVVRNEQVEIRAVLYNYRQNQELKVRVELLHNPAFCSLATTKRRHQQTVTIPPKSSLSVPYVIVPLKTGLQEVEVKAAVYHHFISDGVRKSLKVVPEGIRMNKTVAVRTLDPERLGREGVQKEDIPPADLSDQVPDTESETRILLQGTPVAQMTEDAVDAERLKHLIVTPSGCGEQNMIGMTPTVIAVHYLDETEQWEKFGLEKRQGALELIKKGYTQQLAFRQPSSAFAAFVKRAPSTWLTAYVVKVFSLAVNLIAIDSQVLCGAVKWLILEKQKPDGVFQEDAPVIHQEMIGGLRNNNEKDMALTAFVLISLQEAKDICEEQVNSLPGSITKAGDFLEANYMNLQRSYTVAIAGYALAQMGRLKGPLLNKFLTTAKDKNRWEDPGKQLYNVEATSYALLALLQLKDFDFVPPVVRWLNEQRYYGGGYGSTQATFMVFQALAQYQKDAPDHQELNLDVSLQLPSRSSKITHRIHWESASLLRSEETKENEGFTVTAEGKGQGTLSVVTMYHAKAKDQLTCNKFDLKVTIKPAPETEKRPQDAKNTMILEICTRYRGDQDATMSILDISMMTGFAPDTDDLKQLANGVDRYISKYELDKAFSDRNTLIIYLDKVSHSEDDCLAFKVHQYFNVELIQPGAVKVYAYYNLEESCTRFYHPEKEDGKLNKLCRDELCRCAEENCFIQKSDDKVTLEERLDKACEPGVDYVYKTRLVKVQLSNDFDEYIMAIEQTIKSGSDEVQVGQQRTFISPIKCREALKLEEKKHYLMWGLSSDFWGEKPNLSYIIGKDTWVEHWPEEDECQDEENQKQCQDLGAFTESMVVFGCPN
T6 sequence (P01024 other isoform, or with tags, fused parts or gaps R102G R102G limits assumed): as the sequence (P01024 other isoform, or with tags, fused parts or gaps P314L P314L limits assumed) above, with R86G, L298P counted along it
T1 sequence (P01024 23-1663 limits assumed): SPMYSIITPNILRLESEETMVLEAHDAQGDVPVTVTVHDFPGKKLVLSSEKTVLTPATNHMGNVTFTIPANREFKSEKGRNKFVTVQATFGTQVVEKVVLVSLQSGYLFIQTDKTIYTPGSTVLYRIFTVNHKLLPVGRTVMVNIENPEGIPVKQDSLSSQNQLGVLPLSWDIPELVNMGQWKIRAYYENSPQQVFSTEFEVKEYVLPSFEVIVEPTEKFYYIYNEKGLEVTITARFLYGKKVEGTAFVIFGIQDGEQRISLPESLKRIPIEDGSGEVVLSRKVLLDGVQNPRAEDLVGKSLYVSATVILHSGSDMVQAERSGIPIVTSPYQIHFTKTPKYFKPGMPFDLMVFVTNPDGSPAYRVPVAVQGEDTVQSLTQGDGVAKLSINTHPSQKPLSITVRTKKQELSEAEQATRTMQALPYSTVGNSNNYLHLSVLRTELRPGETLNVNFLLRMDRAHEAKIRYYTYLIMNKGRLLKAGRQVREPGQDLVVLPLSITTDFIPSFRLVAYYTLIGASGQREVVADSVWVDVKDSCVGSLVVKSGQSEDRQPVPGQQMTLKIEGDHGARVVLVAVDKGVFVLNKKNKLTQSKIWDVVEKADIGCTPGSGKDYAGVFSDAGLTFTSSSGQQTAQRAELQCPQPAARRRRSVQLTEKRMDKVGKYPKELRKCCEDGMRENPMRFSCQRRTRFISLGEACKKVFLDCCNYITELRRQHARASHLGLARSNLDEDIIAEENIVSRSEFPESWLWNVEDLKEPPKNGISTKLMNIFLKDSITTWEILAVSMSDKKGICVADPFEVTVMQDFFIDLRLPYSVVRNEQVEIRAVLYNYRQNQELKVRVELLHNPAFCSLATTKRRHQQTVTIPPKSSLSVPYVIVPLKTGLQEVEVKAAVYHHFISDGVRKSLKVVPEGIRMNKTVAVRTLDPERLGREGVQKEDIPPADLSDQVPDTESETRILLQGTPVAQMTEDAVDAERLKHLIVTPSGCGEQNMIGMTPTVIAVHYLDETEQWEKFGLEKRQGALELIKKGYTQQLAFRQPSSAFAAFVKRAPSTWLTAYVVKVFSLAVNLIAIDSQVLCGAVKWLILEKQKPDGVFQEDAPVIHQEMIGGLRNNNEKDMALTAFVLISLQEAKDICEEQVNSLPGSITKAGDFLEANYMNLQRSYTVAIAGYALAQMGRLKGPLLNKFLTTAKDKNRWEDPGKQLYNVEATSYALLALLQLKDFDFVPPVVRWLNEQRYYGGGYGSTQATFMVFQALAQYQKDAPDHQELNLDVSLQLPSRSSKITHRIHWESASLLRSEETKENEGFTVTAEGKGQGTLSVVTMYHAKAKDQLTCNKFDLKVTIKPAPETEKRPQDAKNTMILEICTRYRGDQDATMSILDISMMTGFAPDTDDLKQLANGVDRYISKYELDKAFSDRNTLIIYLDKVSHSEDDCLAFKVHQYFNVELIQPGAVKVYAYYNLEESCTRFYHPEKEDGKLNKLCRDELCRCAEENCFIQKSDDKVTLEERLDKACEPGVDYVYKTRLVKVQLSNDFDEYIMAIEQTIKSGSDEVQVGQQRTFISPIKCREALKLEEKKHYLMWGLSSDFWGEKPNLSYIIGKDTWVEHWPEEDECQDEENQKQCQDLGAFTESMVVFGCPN

B1: Clone I (scFv)
scFv: MQLVLTQSPSASASLGASVKLTCTLSSAHKTYTIDWYQQQPEKCPRYLMQLKSDGSYTKGSGIPDRFSGSSSGAERYLTISSLQSEDEADYYCGTEGVGGYVFGGGTKLTVLGGGGGSGGGGSGGGGSGGGGSQVQLVESGGGSVQPGRSLRLSCAASGFTFSNYAMNWVRQAPGKGLEWVAVISYDGSNKYYADSVKGRFTISRDNSKNTLYLQMNSLRAEDTASYYCARAVGYHHARLDPWGCGTSVTVSS
notes: also called exemplary antibody of the invention (Clone I); scFv of the invention
As for B1, in assay [1], the “IC50 (nM), Alternative Pathway, Hemolysis (rabbit erythrocytes, human serum)” value was 705 nM. Moreover, the “IC50 (nM), Alternative Pathway, MAC deposition (WEISLAB, human serum)” value in assay [1] is 344 nM. The “IC50 (nM), Classical Pathway, Hemolysis (antibody-sensitized sheep erythrocytes, human serum)” value in assay [1] stood at 74 nM. Moreover, in assay [1], the “IC50 (nM), Classical Pathway, MAC deposition (WEISLAB, human serum)” value amounted to 79 nM. In assay [1], the “IC50 (nM), Lectin Pathway, MAC deposition (WEISLAB, human serum)” value came to 67 nM. The Kd came to 160 pM in assay [2]; 140 pM in [3]; 152 pM in [4]; 149 pM in [5]; 152 pM in assay [6]; 149 pM in assay [7]. The Kd in assay [8] turned out to be 267 pM; in assay [9], 148 pM; in assay [10], 140 pM; in assay [11], 135 pM. The koff came to 4.7e-05 s⁻¹ in [6]; 4.8e-05 s⁻¹ in assay [7]; 6.3e-05 s⁻¹ in [8]; 4.9e-05 s⁻¹ in [9]; 4.2e-05 s⁻¹ in [10]; 4.5e-05 s⁻¹ in assay [11]. Also, the kon in [6] was 310000 M⁻¹ s⁻¹; in assay [7], 320000 M⁻¹ s⁻¹; in assay [8] it was 240000 M⁻¹ s⁻¹; in assay [9], 330000 M⁻¹ s⁻¹; in assay [10] it was 300000 M⁻¹ s⁻¹; in [11], 330000 M⁻¹ s⁻¹.

B2: Clone VII (scFv)
scFv: MQLVLTQSPSASASLGASVKLTCTLSSAHKTYTIDWYQQQPEKGPRYLMQLKSEGSYTKGTGVPDRFSGSSSGAERYLTISSLQSEDSAVYYCGTEGVGGYVFGCGTKLTVLGGGGGSGGGGSGGGGSGGGGSQVQVVESGGGSVQPGRSLRLSCAVSGFSLYNYAMNWVRQAPGKCLEWIGIINVGGGTNYASWAKGRFTISTDNSKNTVYLQMNSLRAEDTASYYCARAVGYHHHALDPWGQGTSVTVSS
In turn, B2 yielded a Kd in [12] of 1100 pM.

B3: Clone VIII (scFv)
scFv: MQLVLTQSPSASASLGASVKLTCTLSSAHKTYTIDWYQQQPEKGPRYLMQLKSEGSYTKGTGVPDRFSGSSSGAERYLTISSLQSEDSAVYYCGTEGVGGYVFGCGTKLTVLGGGGGSGGGGSGGGGSGGGGSQVQVVESGGGSVQPGRSLRLSCAVSGFSLYNYAMNWVRQAPGKCLEWIGIINVGGGTNYASWAKGRFTISTDNSKNTVYLQMNSLRAEDTASYYCARAVGYHHSRLDPWGQGTSVTVSS
For the molecule B3, the “fold increase in the binding affinity compared to Clone IV” value in [13] and in assay [14] was approximately 10 fold in each case. In addition, in assay [12], the Kd stood at 184 pM.

B4: Compound A3 Fab (Fab, V domains shown)
VH: QVQLVQSGAEVKKPGASVKVSCKASGYTFTDFYMDWVRQAPGQRLEWMGYIYPHNGGTTYNQQFTGRVTITVDKSASTAYMELSSLRSEDTAVYYCARRGGFDFDYWGQGTLVTVSS
VL: DIQMTQSPSSLSASVGDRVTITCKASENVDTYVSWYQQKPGKAPKLLIYGASNRYTGVPSRFSGSGSGTDFTFTISSLQPEDIATYHCGQSHSYPLTFGQGTKLEIKR
notes: also called NGM621 surrogate in a Fab format
In the case of B4, the “fold lower affinity to C3b than to intact human C3” value in assay [15] was more than 100 fold. Moreover, the affinity in assay [4], expressed as Kd, was 340 pM.

These data come from patent US12344663 (CDR LIFE, dated 2025).
